B1: Coiled-coil domain-containing protein 141 (Homo sapiens), Q6ZP82-1 (parent)
chain: MSSQGSPSVALSTTTVSSVAVQAGDSKIVIAVIKCGKWVQLQLAESQPNLLEIGSSQDETKKLLHDHELLLAKLKALEDRVWELLQEADKTAEENKDQSQVYDAMAETLGEAWAALVSMLERRTELLRLTSEFFENALEFAIKIDQAEDFLQNTHEFESAESLKSLLQLHEHHTKELLERSLALLNKSQQLTDFIEKFKCEGPNVNPELTQGAHSSCLKVDRLLELLQDRRRQLDKYLKQQWQELSQVLQICQWDQQENQVTCWFQKTIRNLQEQSLGSSLSDNEDRIHKQEELIIKAKEWNSAVEKLKSEALRILLSKDYVEKEHLQLSHQKLSQLQEEFGQLMVERNTWLKKANEFFNSANKAFDVLGRVEAYLKLLKSEGLSLAVLAVRHEELHRKIKDCTTDALQKGQTLISQVDSCSSQVSGIHEMMGCIKRRVDHLTEQCSAHKEYALKKQQLTASVEGYLRKVEMSIQKISPVLSNAMDVGSTRSESEKILNKYLELDIQAKETSHELEAAAKTMMEKNEFVSDEMVSLSSKARWLAEELNLFGQSIDYRSQVLQTYVAFLKSSEEVEMQFQSLKEFYETEIPQKEQDDAKAKHCSDSAEKQWQLFLKKSFITQDLGLEFLNLINMAKENEILDVKNEVYLMKNTMENQKAEREELSLLRLAWQLKATESKPGKQQWAAFKEQLKKTSHNLKLLQEALMPVSALDLGGSLQFILDLRQKWNDMKPQFQQLNDEVQYIMKESEELTGRGAPVKEKSQQLKDLIHFHQKQKERIQDYEDILYKVVQFHQVKEELGRLIKSRELEFVEQPKELGDAHDVQIHLRCSQEKQARVDHLHRLALSLGVDIISSVQRPHCSNVSAKNLQQQLELLEEDSMKWRAKAEEYGRTLSRSVEYCAMRDEINELKDSFKDIKKKFNNLKFNYTKKNEKSRNLKALKYQIQQVDMYAEKMQALKRKMEKVSNKTSDSFLNYPSDKVNVLLEVMKDLQKHVDDFDKVVTDYKKNLDLTEHFQEVIEECHFWYEDASATVVRVGKYSTECKTKEAVKILHQQFNKFIAPSVPQQEERIQEATDLAQHLYGLEEGQKYIEKIVTKHKEVLESVTELCESLTELEEKLKQGDVLKMNPNLEDFHYDYIDLLKEPAKNKQTIFNEERNKGQVQVADLLGINGTGEERLPQDLKVSTDKEGGVQDLLLPEDMLSGEEYECVSPDDISLPPLPGSPESPLAPSDMEVEEPVSSSLSLHISSYGVQAGTSSPGDAQESVLPPPVAFADACNDKRETFSSHFERPYLQFKAEPPLTSRGFVEKSTALHRISAEHPESMMSEVHERALQQHPQAQGGLLETREKMHADNNFTKTQDRLHASSDAFSGLRFQSGTSRGYQRQMVPREEIKSTSAKSSVVSLADQAPNFSRLLSNVTVMEGSPVTLEVEVTGFPEPTLTWWVAYNDKP
partner: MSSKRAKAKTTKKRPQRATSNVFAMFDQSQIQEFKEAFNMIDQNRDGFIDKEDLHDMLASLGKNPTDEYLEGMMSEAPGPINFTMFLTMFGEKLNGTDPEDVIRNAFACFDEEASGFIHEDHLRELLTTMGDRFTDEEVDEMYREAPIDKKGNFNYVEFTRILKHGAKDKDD
B2: Myosin regulatory light polypeptide 9 (Homo sapiens), P24844 (parent)
chain: B1 partner
B3: Coiled-coil domain-containing protein 141 (Homo sapiens), Q6ZP82-1 (parent)
chain: B1 chain
partner: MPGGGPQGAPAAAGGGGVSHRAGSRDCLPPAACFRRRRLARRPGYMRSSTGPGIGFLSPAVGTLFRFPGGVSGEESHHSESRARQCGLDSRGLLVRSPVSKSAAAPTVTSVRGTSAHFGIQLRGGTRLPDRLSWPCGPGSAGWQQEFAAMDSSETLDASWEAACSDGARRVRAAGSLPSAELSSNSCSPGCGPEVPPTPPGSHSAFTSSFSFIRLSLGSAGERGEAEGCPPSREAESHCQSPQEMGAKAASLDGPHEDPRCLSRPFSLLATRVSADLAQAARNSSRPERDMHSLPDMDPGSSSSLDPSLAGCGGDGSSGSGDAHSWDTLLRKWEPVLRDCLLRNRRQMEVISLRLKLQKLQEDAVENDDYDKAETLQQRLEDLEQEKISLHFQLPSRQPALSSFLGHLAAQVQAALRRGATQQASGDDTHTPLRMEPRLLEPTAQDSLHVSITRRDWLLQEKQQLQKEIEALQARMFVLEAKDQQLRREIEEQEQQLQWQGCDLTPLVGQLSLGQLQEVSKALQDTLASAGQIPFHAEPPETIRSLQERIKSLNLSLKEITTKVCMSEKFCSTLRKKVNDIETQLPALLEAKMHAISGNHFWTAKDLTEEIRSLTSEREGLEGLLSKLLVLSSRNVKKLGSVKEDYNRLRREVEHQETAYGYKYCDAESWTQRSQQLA

Variants of: B1
Settings: with myl9_human MYL9, P24844

Question: For R828W, which “effect of a mutation on the interaction” value is on record?
Answer: The value was “disrupting interaction strength”.

Variants of: B2
Settings: with cc141_mouse Ccdc141, E9Q8Q6
cc141_mouse Ccdc141, E9Q8Q6, sequence (E9Q8Q6 whole entry): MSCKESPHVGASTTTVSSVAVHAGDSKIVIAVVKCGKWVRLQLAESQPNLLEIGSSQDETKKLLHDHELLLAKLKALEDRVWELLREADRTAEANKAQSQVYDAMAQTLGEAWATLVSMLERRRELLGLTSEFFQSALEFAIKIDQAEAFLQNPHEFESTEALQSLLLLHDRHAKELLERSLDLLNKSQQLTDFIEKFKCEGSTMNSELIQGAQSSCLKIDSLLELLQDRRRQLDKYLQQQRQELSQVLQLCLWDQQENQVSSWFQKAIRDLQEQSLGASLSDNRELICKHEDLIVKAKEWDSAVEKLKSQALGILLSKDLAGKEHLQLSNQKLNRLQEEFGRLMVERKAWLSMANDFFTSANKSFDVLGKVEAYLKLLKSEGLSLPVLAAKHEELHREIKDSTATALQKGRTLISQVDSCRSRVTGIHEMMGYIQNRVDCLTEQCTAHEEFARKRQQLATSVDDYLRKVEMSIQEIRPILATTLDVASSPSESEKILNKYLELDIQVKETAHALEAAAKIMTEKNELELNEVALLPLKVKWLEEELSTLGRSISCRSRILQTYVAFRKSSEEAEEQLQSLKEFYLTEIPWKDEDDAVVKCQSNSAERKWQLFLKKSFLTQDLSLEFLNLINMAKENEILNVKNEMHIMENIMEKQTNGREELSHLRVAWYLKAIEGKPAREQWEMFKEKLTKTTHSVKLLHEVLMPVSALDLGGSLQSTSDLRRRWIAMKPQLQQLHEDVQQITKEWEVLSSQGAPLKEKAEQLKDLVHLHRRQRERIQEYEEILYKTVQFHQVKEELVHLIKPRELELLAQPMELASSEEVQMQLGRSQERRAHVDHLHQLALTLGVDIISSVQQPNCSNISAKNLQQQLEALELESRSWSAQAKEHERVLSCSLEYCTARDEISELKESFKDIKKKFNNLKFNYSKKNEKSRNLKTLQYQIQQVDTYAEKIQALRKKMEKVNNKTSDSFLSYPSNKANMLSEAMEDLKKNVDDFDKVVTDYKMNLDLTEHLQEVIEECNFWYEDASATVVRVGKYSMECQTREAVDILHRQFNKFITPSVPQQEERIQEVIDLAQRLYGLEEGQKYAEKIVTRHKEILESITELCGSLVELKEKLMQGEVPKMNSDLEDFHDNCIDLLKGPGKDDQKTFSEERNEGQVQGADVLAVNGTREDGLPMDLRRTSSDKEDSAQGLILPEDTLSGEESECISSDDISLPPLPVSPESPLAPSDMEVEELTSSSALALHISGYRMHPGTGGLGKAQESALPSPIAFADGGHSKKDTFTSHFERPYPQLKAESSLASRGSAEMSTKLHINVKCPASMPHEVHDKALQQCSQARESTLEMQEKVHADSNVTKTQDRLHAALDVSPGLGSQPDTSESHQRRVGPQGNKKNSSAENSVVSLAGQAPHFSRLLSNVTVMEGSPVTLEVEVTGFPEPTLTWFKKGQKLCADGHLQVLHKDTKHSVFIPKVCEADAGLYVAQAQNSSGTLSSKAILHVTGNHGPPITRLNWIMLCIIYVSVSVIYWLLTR

Question: Which “effect of a mutation on the interaction” value does the source give for MSSKRAKAKTTKKRPQRAAANVFAMFDQSQIQEFKEAFNMIDQNRDGFIDKEDLHDMLASLGKNPTDEYLEGMMSEAPGPINFTMFLTMFGEKLNGTDPEDVIRNAFACFDEEASGFIHEDHLRELLTTMGDRFTDEEVDEMYREAPIDKKGNFNYVEFTRILKHGAKDKDD here?
Answer: Its value is “disrupting interaction strength”.

Question: MSSKRAKAKTTKKRPQRADDNVFAMFDQSQIQEFKEAFNMIDQNRDGFIDKEDLHDMLASLGKNPTDEYLEGMMSEAPGPINFTMFLTMFGEKLNGTDPEDVIRNAFACFDEEASGFIHEDHLRELLTTMGDRFTDEEVDEMYREAPIDKKGNFNYVEFTRILKHGAKDKDD was tested. Which “effect of a mutation on the interaction” value did it give?
Answer: Its value is “increasing interaction strength”.

Variants of: B3
Settings: with DISC1, Q9NRI5-3

Question: Which “effect of a mutation on the interaction” value does the source give for R828W here?
Answer: Its value is “with no effect”.
